Results taken from article PMC12796099.

Target: human somatostatin receptor 5 (SSTR5) (human) (UniProt P35346)
Sequence of UniProt P35346 (P35346 whole entry): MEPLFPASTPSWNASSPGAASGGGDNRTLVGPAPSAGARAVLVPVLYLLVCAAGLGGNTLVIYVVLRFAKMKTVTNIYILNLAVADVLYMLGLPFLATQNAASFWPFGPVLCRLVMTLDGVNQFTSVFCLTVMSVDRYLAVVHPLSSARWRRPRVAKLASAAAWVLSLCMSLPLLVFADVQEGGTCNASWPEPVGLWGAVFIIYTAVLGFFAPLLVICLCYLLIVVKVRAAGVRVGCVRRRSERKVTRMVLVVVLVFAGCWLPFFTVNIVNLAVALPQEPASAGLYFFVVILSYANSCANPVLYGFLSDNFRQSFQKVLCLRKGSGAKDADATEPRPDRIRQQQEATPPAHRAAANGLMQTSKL

Substance: SRIF-14-Sed1 periplasmic display fusion (from UniProt P61278 103-116) (ligand)
- autocrine GPCR activation by αPre-ligand-display fusion, DCyFIR mTq2 transcriptional reporter, relative to the Ccw14 fusion (% of the activity of the Ccw14 fusion): 30
